The numbers were not newly measured in patent US20190076452A1, “THERAPEUTIC COMBINATIONS FOR TREATING NEOPLASIA” (MEDIMMUNE LIMITED, priority 2014, published 2019), which cites them from elsewhere.

The subject of the data set is advanced melanoma. Particulars: compared to the standard of care (temozolomide or dacarbazine); cited from earlier work.

B1: tremelimumab: human IgG2 monoclonal antibody highly selective for CTLA-4 (antibody)
VH: GVVQPGRSLRLSCAASGFTFSSYGMHWVRQAPGKGLEWVAVIWYDGSNKYYADSVKGRFTISRDNSKNTLYLQMNSLRAEDTAVYYCARDPRGATLYYYYYGMDVWGQGTTVTVSSASTKGPSVFPLAPCSRSTSESTAALGCLVKDYFPEPVTVSWNSGALTSGVH
VL: PSSLSASVGDRVTITCRASQSINSYLDWYQQKPGKAPKLLIYAASSLQSGVPSRFSGSGSGTDFTLTISSLQPEDFATYYCQQYYSTPFTFGPGTKVEIKRTVAAPSVFIFPPSDEQLKSGTASVVCLLNNFYPREAKV
For the molecule B1, the “overall survival of patients” value is on record as “did not significantly increase”.
